The test system of this series is Escherichia coli TOP10. In words: shrunken log2 fold change of peptide-encoding DNA abundance (4.5 h post-induction vs induction); higher = less antimicrobial activity (less host growth inhibition). Particulars: time post-induction: 4.5 h; library: site-saturation at positions 5, 18, 19, 20.
On to RRIRQRPPRLPRPRPRPLHTPRP, for which the “shrunken log2 fold change” value turned out to be 0.0932.

As to RRIRYRPPRLPRPRPRPATEPRP, the “shrunken log2 fold change” value is 0.0247.

In the case of RRIRNRPPRLPRPRPRPLPAPRP, the “shrunken log2 fold change” value was 1.07.

Take RRIRNRPPRLPRPRPRPDLFPRP: the “shrunken log2 fold change” value is -0.00884.

Turning to RRIRVRPPRLPRPRPRPIPSPRP, the “shrunken log2 fold change” value is -0.165.

For RRIRVRPPRLPRPRPRPCVMPRP, the “shrunken log2 fold change” value was -0.0841.

Regarding RRIRYRPPRLPRPRPRPICKPRP, the “shrunken log2 fold change” value was -0.193.

For RRIRGRPPRLPRPRPRPEFGPRP, the “shrunken log2 fold change” value came out at 0.797.

With RRIRVRPPRLPRPRPRPIADPRP, the “shrunken log2 fold change” value is 0.0367.

With RRIRCRPPRLPRPRPRPEYCPRP, the “shrunken log2 fold change” value is -0.0902.

As for RRIRKRPPRLPRPRPRPQWLPRP, the “shrunken log2 fold change” value worked out at 0.0628.

As for RRIRMRPPRLPRPRPRPCRLPRP, the “shrunken log2 fold change” value turned out to be 0.0956.

For the sequence RRIRRRPPRLPRPRPRPQYFPRP, the “shrunken log2 fold change” value was -0.0475.

Consider RRIRFRPPRLPRPRPRPGDYPRP, for which the “shrunken log2 fold change” value was -0.406.

For RRIRMRPPRLPRPRPRPVEMPRP, the “shrunken log2 fold change” value is -0.0685.

With RRIRMRPPRLPRPRPRPYWYPRP, the “shrunken log2 fold change” value is -0.0684.

For RRIRIRPPRLPRPRPRPPYPPRP, the “shrunken log2 fold change” value was -0.188.

Take RRIRFRPPRLPRPRPRPCCEPRP: the “shrunken log2 fold change” value is -0.414.

Take RRIRQRPPRLPRPRPRPNASPRP: the “shrunken log2 fold change” value was -0.015.

RRIRIRPPRLPRPRPRPEHMPRP: the “shrunken log2 fold change” value was -0.0778.

On to RRIRPRPPRLPRPRPRPYVLPRP, for which the “shrunken log2 fold change” value is -0.519.

With RRIRDRPPRLPRPRPRPHVMPRP, the “shrunken log2 fold change” value was -0.0796.

As for RRIRWRPPRLPRPRPRPFHPPRP, the “shrunken log2 fold change” value was -0.138.

For the sequence RRIRRRPPRLPRPRPRPAWNPRP, the “shrunken log2 fold change” value is 0.141.

Regarding RRIRKRPPRLPRPRPRPMYEPRP, the “shrunken log2 fold change” value is -0.132.

In the case of RRIRCRPPRLPRPRPRPIHVPRP, the “shrunken log2 fold change” value is -0.377.

As for RRIRNRPPRLPRPRPRPFTFPRP, the “shrunken log2 fold change” value is -0.628.

RRIRQRPPRLPRPRPRPFWWPRP: the “shrunken log2 fold change” value is 0.0308.

In the case of RRIRNRPPRLPRPRPRPGVIPRP, the “shrunken log2 fold change” value is 0.208.

As for RRIRMRPPRLPRPRPRPMPAPRP, the “shrunken log2 fold change” value stood at 1.07.

As to RRIRWRPPRLPRPRPRPNAIPRP, the “shrunken log2 fold change” value was -0.123.

RRIRARPPRLPRPRPRPSNLPRP: the “shrunken log2 fold change” value is -0.39.

RRIRYRPPRLPRPRPRPFQWPRP: the “shrunken log2 fold change” value stood at 0.0299.

As to RRIRCRPPRLPRPRPRPQCNPRP, the “shrunken log2 fold change” value is -0.5.

Consider RRIRHRPPRLPRPRPRPLTVPRP, for which the “shrunken log2 fold change” value was -0.0423.

For the sequence RRIRYRPPRLPRPRPRPTTQPRP, the “shrunken log2 fold change” value is -0.597.

Regarding RRIRIRPPRLPRPRPRPDYWPRP, the “shrunken log2 fold change” value is -0.195.

RRIRWRPPRLPRPRPRPLTSPRP: the “shrunken log2 fold change” value was -0.101.

For the sequence RRIRWRPPRLPRPRPRPPGWPRP, the “shrunken log2 fold change” value amounted to 0.527.

For RRIRVRPPRLPRPRPRPPGGPRP, the “shrunken log2 fold change” value is 0.598.

In the case of RRIRYRPPRLPRPRPRPPHWPRP, the “shrunken log2 fold change” value was 0.203.

On to RRIRCRPPRLPRPRPRPPWKPRP, for which the “shrunken log2 fold change” value was 0.195.

Regarding RRIRARPPRLPRPRPRPRCFPRP, the “shrunken log2 fold change” value was determined as 0.222.

In the case of RRIRKRPPRLPRPRPRPGYQPRP, the “shrunken log2 fold change” value is 0.0954.

Regarding RRIRERPPRLPRPRPRPCIAPRP, the “shrunken log2 fold change” value is -0.753.

For RRIRNRPPRLPRPRPRPALVPRP, the “shrunken log2 fold change” value stood at 0.461.

As for RRIRDRPPRLPRPRPRPVFRPRP, the “shrunken log2 fold change” value was 0.18.

Consider RRIRTRPPRLPRPRPRPFNIPRP, for which the “shrunken log2 fold change” value was -0.333.

Regarding RRIRNRPPRLPRPRPRPNCIPRP, the “shrunken log2 fold change” value is -0.679.

As for RRIRMRPPRLPRPRPRPWPEPRP, the “shrunken log2 fold change” value turned out to be 0.735.

Turning to RRIRYRPPRLPRPRPRPAERPRP, the “shrunken log2 fold change” value is 0.0541.

RRIRKRPPRLPRPRPRPALFPRP: the “shrunken log2 fold change” value amounted to 0.497.

RRIRWRPPRLPRPRPRPMTYPRP: the “shrunken log2 fold change” value was -0.289.

Turning to RRIRNRPPRLPRPRPRPIQSPRP, the “shrunken log2 fold change” value was -0.216.

Turning to RRIRCRPPRLPRPRPRPDRLPRP, the “shrunken log2 fold change” value is -0.335.

On to RRIRIRPPRLPRPRPRPDAQPRP, for which the “shrunken log2 fold change” value was -0.0523.

On to RRIRHRPPRLPRPRPRPFMLPRP, for which the “shrunken log2 fold change” value is -0.726.

Turning to RRIRMRPPRLPRPRPRPLWDPRP, the “shrunken log2 fold change” value worked out at 0.437.

With RRIRMRPPRLPRPRPRPGHWPRP, the “shrunken log2 fold change” value was determined as 0.263.

In the case of RRIRVRPPRLPRPRPRPSDNPRP, the “shrunken log2 fold change” value was -0.878.

Take RRIRSRPPRLPRPRPRPFFVPRP: the “shrunken log2 fold change” value is -0.184.

RRIRCRPPRLPRPRPRPLMAPRP: the “shrunken log2 fold change” value worked out at 0.18.

On to RRIRQRPPRLPRPRPRPVLCPRP, for which the “shrunken log2 fold change” value is -0.238.

Turning to RRIRLRPPRLPRPRPRPYTPPRP, the “shrunken log2 fold change” value is -0.484.

In the case of RRIRKRPPRLPRPRPRPNQKPRP, the “shrunken log2 fold change” value was determined as 0.11.

As for RRIRSRPPRLPRPRPRPDIIPRP, the “shrunken log2 fold change” value is -0.16.

Take RRIRSRPPRLPRPRPRPQYWPRP: the “shrunken log2 fold change” value was -0.397.

Consider RRIRSRPPRLPRPRPRPDARPRP, for which the “shrunken log2 fold change” value came to 0.1.

With RRIRFRPPRLPRPRPRPNIHPRP, the “shrunken log2 fold change” value was -0.814.

On to RRIRKRPPRLPRPRPRPQVRPRP, for which the “shrunken log2 fold change” value is -0.117.

With RRIRARPPRLPRPRPRPKGFPRP, the “shrunken log2 fold change” value turned out to be 0.102.

On to RRIRGRPPRLPRPRPRPSYEPRP, for which the “shrunken log2 fold change” value stood at 0.0732.

As to RRIRMRPPRLPRPRPRPEMQPRP, the “shrunken log2 fold change” value was determined as 2.83.

For the sequence RRIRYRPPRLPRPRPRPCGVPRP, the “shrunken log2 fold change” value stood at 2.83.

In the case of RRIRYRPPRLPRPRPRPSDRPRP, the “shrunken log2 fold change” value is -0.307.

As for RRIRKRPPRLPRPRPRPGYDPRP, the “shrunken log2 fold change” value was -0.0159.

For the sequence RRIRMRPPRLPRPRPRPPNDPRP, the “shrunken log2 fold change” value worked out at 0.574.

With RRIRMRPPRLPRPRPRPDSMPRP, the “shrunken log2 fold change” value amounted to 0.025.

In the case of RRIRTRPPRLPRPRPRPTERPRP, the “shrunken log2 fold change” value is 0.36.

With RRIRGRPPRLPRPRPRPDRWPRP, the “shrunken log2 fold change” value was 0.703.

On to RRIRYRPPRLPRPRPRPYLPPRP, for which the “shrunken log2 fold change” value is -0.174.

As to RRIRHRPPRLPRPRPRPMQGPRP, the “shrunken log2 fold change” value is -0.0154.

On to RRIRSRPPRLPRPRPRPPAYPRP, for which the “shrunken log2 fold change” value is -0.0776.

On to RRIRRRPPRLPRPRPRPQCMPRP, for which the “shrunken log2 fold change” value is -0.0592.

For RRIRSRPPRLPRPRPRPYQCPRP, the “shrunken log2 fold change” value is -0.00419.

Take RRIRPRPPRLPRPRPRPKQGPRP: the “shrunken log2 fold change” value amounted to 0.0197.

RRIRDRPPRLPRPRPRPLLAPRP: the “shrunken log2 fold change” value was determined as 1.2.

For RRIRIRPPRLPRPRPRPLPCPRP, the “shrunken log2 fold change” value was -0.661.

For the sequence RRIRWRPPRLPRPRPRPTVCPRP, the “shrunken log2 fold change” value is 0.00145.

For the sequence RRIRMRPPRLPRPRPRPYNCPRP, the “shrunken log2 fold change” value is -0.0909.

As for RRIRPRPPRLPRPRPRPTAIPRP, the “shrunken log2 fold change” value worked out at 0.434.

In the case of RRIRIRPPRLPRPRPRPLTGPRP, the “shrunken log2 fold change” value was -0.0674.

As for RRIRMRPPRLPRPRPRPPSPPRP, the “shrunken log2 fold change” value was 1.57.

As for RRIRQRPPRLPRPRPRPTHCPRP, the “shrunken log2 fold change” value stood at 0.897.

Regarding RRIRKRPPRLPRPRPRPHLYPRP, the “shrunken log2 fold change” value is 0.0535.

As to RRIRERPPRLPRPRPRPTASPRP, the “shrunken log2 fold change” value is -0.15.

Take RRIRYRPPRLPRPRPRPGEGPRP: the “shrunken log2 fold change” value was found to be 0.00405.

As for RRIRVRPPRLPRPRPRPNWAPRP, the “shrunken log2 fold change” value was -0.0443.

Regarding RRIRTRPPRLPRPRPRPFDSPRP, the “shrunken log2 fold change” value was -0.258.

On to RRIRDRPPRLPRPRPRPCMKPRP, for which the “shrunken log2 fold change” value is -0.0664.

Take RRIRDRPPRLPRPRPRPSHMPRP: the “shrunken log2 fold change” value was -0.0936.

On to RRIRPRPPRLPRPRPRPVMYPRP, for which the “shrunken log2 fold change” value is -0.0963.

For RRIRTRPPRLPRPRPRPQVFPRP, the “shrunken log2 fold change” value was -0.0243.

Consider RRIRNRPPRLPRPRPRPRPNPRP, for which the “shrunken log2 fold change” value is 0.135.

With RRIRTRPPRLPRPRPRPIYRPRP, the “shrunken log2 fold change” value is -0.0278.

Regarding RRIRHRPPRLPRPRPRPTWWPRP, the “shrunken log2 fold change” value came to 0.368.

As for RRIRSRPPRLPRPRPRPSVGPRP, the “shrunken log2 fold change” value came out at 0.0671.

Take RRIRARPPRLPRPRPRPLHSPRP: the “shrunken log2 fold change” value was 0.0941.

For RRIRHRPPRLPRPRPRPQHPPRP, the “shrunken log2 fold change” value was -0.396.

As for RRIRFRPPRLPRPRPRPCTRPRP, the “shrunken log2 fold change” value was 0.0381.

Turning to RRIRCRPPRLPRPRPRPLFSPRP, the “shrunken log2 fold change” value is 2.05.

On to RRIRRRPPRLPRPRPRPDYAPRP, for which the “shrunken log2 fold change” value turned out to be 0.559.

For the sequence RRIRQRPPRLPRPRPRPVHFPRP, the “shrunken log2 fold change” value is -0.00916.

Turning to RRIRYRPPRLPRPRPRPSNEPRP, the “shrunken log2 fold change” value was -0.474.

With RRIRVRPPRLPRPRPRPCTFPRP, the “shrunken log2 fold change” value was -0.0858.

In the case of RRIRPRPPRLPRPRPRPDCKPRP, the “shrunken log2 fold change” value is -0.133.

Regarding RRIRQRPPRLPRPRPRPVKYPRP, the “shrunken log2 fold change” value is -0.067.

RRIRTRPPRLPRPRPRPAQYPRP: the “shrunken log2 fold change” value amounted to 0.105.

As to RRIRERPPRLPRPRPRPEDLPRP, the “shrunken log2 fold change” value came to 0.0648.

For the sequence RRIRQRPPRLPRPRPRPTHSPRP, the “shrunken log2 fold change” value came to 0.415.

With RRIRFRPPRLPRPRPRPVHLPRP, the “shrunken log2 fold change” value was -0.0117.

Take RRIRCRPPRLPRPRPRPKGHPRP: the “shrunken log2 fold change” value is -0.17.

For RRIRGRPPRLPRPRPRPENSPRP, the “shrunken log2 fold change” value worked out at 0.678.

On to RRIRPRPPRLPRPRPRPQHYPRP, for which the “shrunken log2 fold change” value was -0.675.

Take RRIRSRPPRLPRPRPRPRINPRP: the “shrunken log2 fold change” value was -0.301.

The values are drawn from the supplement of paper PMC9112550, “Optimization of the antimicrobial peptide Bac7 by deep mutational scanning” (BMC Biology, 2022).
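Further: peptides expressed intracellularly from a pBAD plasmid library in pooled LB shake-flask culture, induced with 0.3% L-arabinose, DNA abundance read by NGS, three biological replicates, DESeq2 with apeglm shrinkage.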
